In paper PMC8428690 one finds stoichiometry N, Kd and percent inhibition of spTorA-GFP binding to Tat++ IMVs data, which are given here for one molecule.

Where two headings read alike, the source gives them in different places.

Test [1] concerns the target H6-spTorA-mCherry (E. coli | not stated). The test can be described thus: SEC; substrate (~7 μM) mixed with TorD 1:1 or 1:2, 10 min at 37°C in FPLC buffer with 5 mM DTT, then Superdex 75 at 4°C; fractions analysed by anti-6xHis Western blot.
Test [2] shares this target. The test is described as follows: SEC; fractions 19-21 of the purified 1:1 TorD/spTorA-mCherry complex pooled, centrifuged and at once re-run on the column (~2.3-3.5 μM total TorD); KD estimated from the ratio of the peaks.
Test [3] addresses TorD-H6 (Escherichia coli TorD, 6xHis tagged) (E. coli) (UniProt P36662). The test is described as follows: SEC; Ni-NTA purified TorD alone, ~170 μM total load; Superdex 75 10/300 GL, FPLC buffer (5 mM MgCl2, 150 mM NaCl, 25 mM MOPS, 25 mM MES, 25% glycerol, pH 8.0), 5 mM DTT, 4°C; dimer to monomers, KD estimated from the monomer/dimer ratio.
Test [4] concerns the target spTorA-GFP(Alexa532) (E. coli | not stated). The test is described as follows: co-sedimentation; competition, apparent KD: spTorA-GFP(Alexa532) 50 nM pre-incubated with various concentrations of TorD (10 min, 37°C), then with Tat++ IMVs (A280 = 5; 10 min, 37°C), pelleted (32,000 g, 4°C, 10 min); IMV-bound precursor by in-gel fluorescence; high-BSA translocation buffer.
Test [5] shares this target. Described as above. The source holds these as a separate data set.

Sequence of spTorA-GFP(Alexa532) (E. coli | not stated) (P33225 1-39, tags left off): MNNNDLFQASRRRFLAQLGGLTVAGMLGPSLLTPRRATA
Sequence of H6-spTorA-mCherry (E. coli | not stated) (P33225 1-39 limits assumed): as the sequence (P33225 1-39, tags left off) above

B1: TorD-H6 (Escherichia coli TorD, 6xHis tagged) (natural protein)
chain: MTTLTAQQIACVYAWLAQLFSRELDDEQLTQIASAQMAEWFSLLKSEPPLTAAVNELENRIATLTVRDDARLELAADFCGLFLMTDKQAALPYASAYKQDEQEIKRLLVEAGMETSGNFNEPADHLAIYLELLSHLHFSLGEGTVPARRIDSLRQKTLTALWQWLPEFVARCRQYDSFGFYAALSQLLLVLVECDHQNR
Molecule B1 yielded a stoichiometry N in test [1] of 1. The Kd in test [2] was 1500 nM; in test [3] it was over 50 µM; in test [4], 800 nM; in test [5], 1300 nM. The percent inhibition of spTorA-GFP binding to Tat++ IMVs at ~1 μM TorD in test [5] was found to be 50%.
